According to publication PMC6071955:
Where “and” joins values, the source holds several entries; their conditions need not be identical. Identical values can stand only once. Like-named read-outs stand apart in the source and are kept apart here.

Experiments:
[1] = target: FusC(E83A) mutant, catalytically inactive (Pectobacterium (species and strain of the cloned gene not stated)); experiment: ITC; ferredoxin (200 uM) titrated in 10 ul steps, 27 titrations, into the chamber with FusC(E83A) (20 uM); 20 mM HEPES, 50 mM NaCl pH 7.5; MicroCal VP-ITC; 299.15 K (Table 2); parameters from the average of the two best of three reactions
[2] = target: FusC(E83A) mutant, catalytically inactive (Pectobacterium (species and strain of the cloned gene not stated)); experiment: as above; remark: listed apart in the source

ferredoxin from the plant Arabidopsis thaliana (from UniProt P16972 53-145) (natural protein)
Ka [1]: 452000 M⁻¹ and 805000 M⁻¹ and 629000 M⁻¹ | Kd [1]: 1.24 µM and 1.73 µM and 2.21 µM | dH [1]: -5.2 kcal/mol and -4.91 kcal/mol and -5.06 kcal/mol | stoichiometry N [1]: 1.12 and 1.06 and 1.09 | Kd [2]: 1.9 µM
